This is an account of results in patent US6287561.

For this assay, the target named is gp120 of HIV-1 RF strain (HIV-1 RF strain) (UniProt P04579).

In the case of LMW-UK (from UniProt P00749), the p24 antigen level in H9 cell supernatants, percent of control is 4 % of control.
